Data taken from US20230357389A1 (Innovent, published 2023).
Changes are numbered by the printed parent chain.

How the values were obtained:
[1] = target: T1, human CLDN18.2 on the cell surface (human, UniProt P56856-2 1-261); assay: flow cytometry (FACS) titration on NUGC-4 gastric cancer cells
T1 construct: whole, on cells; Stably transfected CHO-S, KATO III and DAN-G cells; NUGC-4 is a CLDN18.2-positive gastric cancer line; also called CHO-hCLDN18.2

[2] = target: T2, Human Claudin 18.2 (GenScrip, P50251802) (human, UniProt P56856-2 1-261, limits assumed); assay: SPR (Biacore T200), CLDN18.2 amine-coupled to chip, antibody as analyte, 1:1 model
T2 construct: Bought protein; also called human CLDN18.2
Method: After coupling, 1 M ethanolamine was injected to seal the remaining activation sites. The binding and dissociation between the chip surface antigen and the antibody in the mobile phase were detected by Biocore (GE Healthcare, T200) according to the manufacturer's instructions to obtain the affinity and kinetic constants. The serially diluted antibody (0-100 nM) flowed through the chip surface in order from low concentration to high concentration, with binding time of 180 s and dissociation time of 600 s. Finally, 10 mM Glycine pH 1.5 (GE Healthcare, BR-1003-54) was used to regenerate the chip. The resulting data were analyzed using the Biocore T200 analysis software and the dynamic analysis was conducted using the 1:1 combination model.

[3] = target: T3, human CLDN18.1 on the cell surface (human, UniProt P56856 1-261); assay: flow cytometry (FACS) titration on CHO-hCLDN18.1 cells, PE anti-human Fc secondary antibody
T3 construct: whole, on cells; also called CHO-hCLDN18.1
Method: (§1) Specifically, the cells to be tested (CHO-hCLDN18.2 and CHO-hCLDN18.1) obtained in Example 1 were counted and diluted to 1×10⁶ cells/ml, added to the U-shaped bottom 96-well plate at 100 μl/well, and then centrifuged at 500 g for 5 min before the cell culture medium was removed. […] The initial concentration of the antibody was 900 nM, and it was diluted three times serially, a total of 10 concentration points before leaving it on ice for 30 min, and removing the supernatant at 500 g for 5 min, and washing the cells with PBS once before adding goat anti-human Fc PE-labeled secondary antibody (Southern Biotech, J2815-5H87B) at 100 μl/well, and incubating in dark on ice for 30 min, removing the supernatant at 500 g for 5 min, and washing the cells with PBS once. 50 μl 1×PBS was used to resuspend cells and FACS was used for detection. GraphPad Prism software was used to analyze the experimental data and get FIG. 1 and FIG. 2.

[4] = target: T1, human CLDN18.2 on the cell surface; assay: flow cytometry (FACS) titration on CHO-hCLDN18.2 cells, PE anti-human Fc secondary antibody; the EC50 table prints no unit, nM is taken from the axis Log[Conc.(nM)]
Method: as §1

[5] = target: T1, human CLDN18.2 on the cell surface; assay: flow cytometry (FACS) titration on DAN-G-hCLDN18.2 pancreatic cancer cells
[6] = target: T4, human CD3 complex on T cells (human, UniProt P07766 23-207; P04234 22-171; P09693 23-182; P20963 22-164); assay: flow cytometry on Jurkat cells (human CD3 complex), PE anti-human Fc secondary antibody; the EC50 table prints no unit, nM is taken from the axis Concentration of antibody (nM)
T4 construct: whole, on cells; also called CD3 at the cellular level; Jurkat cells
Excerpt: Jurkat cells were immortalized human T lymphocytes, which expressed human CD3 complex. The cell line was used to detect the binding of the antibody of invention and the cell.

[7] = target: T1, human CLDN18.2 on the cell surface; assay: cell-based or functional assay

T4 sequence (P07766 23-207, chain 1 of 4): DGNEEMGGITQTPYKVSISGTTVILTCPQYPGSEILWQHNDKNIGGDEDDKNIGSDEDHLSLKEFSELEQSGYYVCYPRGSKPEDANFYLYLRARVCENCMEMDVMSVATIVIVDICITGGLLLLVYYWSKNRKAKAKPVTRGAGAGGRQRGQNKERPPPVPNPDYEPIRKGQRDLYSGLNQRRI
T4 sequence (P04234 22-171, chain 2 of 4): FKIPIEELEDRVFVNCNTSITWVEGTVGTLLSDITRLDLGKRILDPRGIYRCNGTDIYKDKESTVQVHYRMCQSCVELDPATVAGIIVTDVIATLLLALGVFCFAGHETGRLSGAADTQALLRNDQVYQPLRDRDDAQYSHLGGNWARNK
T4 sequence (P09693 23-182, chain 3 of 4): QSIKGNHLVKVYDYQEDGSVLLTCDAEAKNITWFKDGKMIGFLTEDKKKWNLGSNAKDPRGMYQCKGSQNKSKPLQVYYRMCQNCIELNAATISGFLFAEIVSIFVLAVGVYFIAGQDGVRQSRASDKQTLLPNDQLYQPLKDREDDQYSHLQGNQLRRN
T4 sequence (P20963 22-164, chain 4 of 4): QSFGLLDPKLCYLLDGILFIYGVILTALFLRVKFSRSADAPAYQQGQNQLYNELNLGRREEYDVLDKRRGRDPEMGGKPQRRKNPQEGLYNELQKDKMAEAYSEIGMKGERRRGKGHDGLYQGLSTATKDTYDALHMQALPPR

B1: anti-CLDN18.2 monoclonal antibody HB37A6 (antibody, human IgG1, kappa, V domains shown)
VH: EVQLLDSGGGLVQPGGSLRLSCAASGFTFSSYVMSWVRQAPGKGLNWVSTISHSGGSTYYADSVKGRFTISRDNSKNTLYLQMNSLRAEDTAVYYCAIDAPYYDILTGYRYWGQGTLVTVSS
VL: not shown
notes: also called whole human antibody HB37A6
EC50 (read off the curve) [1]: ~1 nM | Kd [2]: 0.72 nM | koff [2]: 0.000306 s⁻¹ | kon [2]: 425000 M⁻¹ s⁻¹ | binding result [3]: no binding | EC50 [4]: 5.51 nM

B2: control antibody zolbetuximab (antibody, human IgG1, kappa, V domains shown)
VH: QVQLQQPGAELVRPGASVKLSCKASGYTFTSYWINWVKQRPGQGLEWIGNIYPSDSYTNYNQKFKDKATLTVDKSSSTAYMQLSSPTSEDSAVYYCTRSWRGNSFDYWGQGTTLTVSS
VL: DIVMTQSPSSLTVTAGEKVTMSCKSSQSLLNSGNQKNYLTWYQQKPGQPPKLLIYWASTRESGVPDRFTGSGSGTDFTLTISSVQAEDLAVYYCQNDYSYPFTFGSGTKLEIKR
notes: also called Zmab; positive control antibody Zmab
EC50 (read off the curve) [1]: ~3 nM | EC50 (read off the curve) [5]: ~2 nM | EC50 [4]: 3.31 nM

B3: anti-CD3 monoclonal antibody HzSP34.87 (antibody, human IgG1, lambda, L234A L235A, V domains shown)
VH: EVQLVESGGGLVQPGGSLKLSCAASGFTFNTYAMNWVRQASGKGLEWVGRIRSKYNNYATYYADSVKDRFTISRDDSKSTLYLQMNSLKTEDTAVYYCARHYNFGQSYVSWFAYWGQGTTVTVSS
VL: QAVVTQEPSLTVSPGGTVTLTCRSSTGAVTTSNYANWVQQKPGQAPRGLIGGTNKRAPGVPARFSGSLLGDKAALTLLGAQPEDEAEYYCALWYSNLWVFGQGTKLTVLG
EC50 [6]: 3.42 nM

B4: anti-CD3 monoclonal antibody HzSP34.97 (antibody, human IgG1, lambda, L234A L235A, V domains shown)
VH: B3 VH with Y55A, N56G, N57G, Y102G
VL: B3 VL
EC50 [6]: 3 nM

B5: bispecific antibody 030 (CLDN18.2 x CD3) (bispecific antibody, human IgG1, kappa, lambda, L234A L235A)
heavy 1: not shown
light 1: not shown
heavy 2: not shown
light 2: QAVVTQEPSLTVSPGGTVTLTCRSSTGAVTTSNYANWVQQKPGQAPRGLIGGTNKRAPGVPARFSGSLLGDKAALTLLGAQPEDEAEYYCALWYSNLWVFGQGTKLTVLGQPKAAPSVTLFPPSSEELQANKATLVCLISDFYPGAVTVAWKADSSPVKAGVETTTPSKQSNNKYAASSYLSLTPEQWKSHRSYSCQVTHEGSTVEKTVAPTECS
EC50 of PBMC-mediated killing of gastric cancer cell NUGC-4 [7]: < 0.001 nM | EC50 of PBMC-mediated killing of pancreatic cancer cell DAN-G-hCLDN18.2 [7]: < 0.1 pM

B6: bispecific antibody 032 (CLDN18.2 x CD3) (bispecific antibody, human IgG1, kappa, lambda, L234A L235A)
heavy 1: not shown
light 1: not shown
heavy 2: not shown
light 2: B5 light 2
EC50 of PBMC-mediated killing of gastric cancer cell NUGC-4 [7]: < 0.001 nM | EC50 of PBMC-mediated killing of pancreatic cancer cell DAN-G-hCLDN18.2 [7]: < 0.1 pM

B7: bispecific antibody 033 (CLDN18.2 x CD3) (bispecific antibody, human IgG1, kappa, lambda, L234A L235A)
heavy 1: not shown
light 1: not shown
heavy 2: not shown
light 2: B5 light 2
killing activity on NUGC-4 and DAN-G-hCLDN18.2 relative to 030 and 032 [7]: ~1000 times lower than 030 and 032
